PMC9841416, “The recognition of structured elements by a conserved groove distant from domains associated with catalysis is an essential determinant of RNase E”

Target: NTH-RNase E D346N (Escherichia coli (K12, P21513-1 in …, UniProt P21513 1-529, D346N))
Experiment: EMSA; 15 mM CaCl2; 25 mM bis-Tris propane pH 8.3, 100 mM KCl, 15 mM CaCl2, 0.1% (v/v) Triton X-100, 1 mM DTT, 20% (v/v) glycerol, 37 C 20 min; 1% agarose gel in 1x TBE
Settings: protein: recombinant; tags: N-terminal oligohistidine; chain copies: 4; single-stranded

B1: 5'-monophosphorylated LU13 (ssRNA)
RNA: GAGACAGUAUUUG
modifications: 5'-monophosphate
With B1 the Kd was 56 nM.
